The text below walks through data of patent US6515103B1 (priority 1996, dated 2003).

Series [1] deals with Frings audiogenic seizure-susceptible mice. To be noted: mouse, in vivo.
Series [2] has the same test system. To be noted: for P.I. / PI: Frings audiogenic seizure-susceptible; for P.I. / ED50 / PI / ED50 nmol: mouse, in vivo.
Series [3] concerns the target NMDA receptor. The series is described as follows: spermine-stimulated [3H]MK-801 binding assay, inhibition.
Where [4] appears, read: Frings audiogenic seizure-susceptible.

Where “and” joins values, the source holds several entries; their conditions need not be identical. Equal entries are not always repeated. Where two headings read alike, the source gives them in different places.

Take `NC(=O)OCC(COC(N)=O)c1ccccc1` [Felbamate, reference compound]: the TD50 nmol result in series [1] is listed as “no marked toxicity”. Besides, the “protected (number/tested) printed in ED50 column” value in series [2] (30 min) was 5/8 protected at 525 and 4/8 protected at 630.

As to `CC(C(O)c1ccc(O)cc1)N1CCC(Cc2ccccc2)CC1` (stereo not shown) [Ifenprodil, reference compound], the TD50 in series [1] (setting [4]) is given as less than 25 nmols. In addition, in series [2], the P.I. is reported as less than 1 and the ED50 entry is “˜25 nmols”.

For the compound `Nc1nnc(-c2cccc(Cl)c2Cl)c(N)n1` [Lamotrigine, reference compound], the TD50 nmol in series [1] (setting [4]) is greater than 290 nmol. In series [2], this compound gave a PI greater than 2.0 and an ED50 nmol of 146 nmol.

In turn, `C[C@]12N[C@H](Cc3ccccc31)c1ccccc12` [MK801, dizocilpine, reference compound] yielded a TD50 in series [1] (setting [4]) of 1.227 nmols. In series [2], this compound gave a P.I. of 1.9 and an ED50 of 0.641 nmols.

In series [1] (setting [4]), `CCC1(c2ccccc2)C(=O)NC(=O)NC1=O` [Phenobarbitol, reference compound] displayed a TD50 nmol of 68.8 nmol. For the same compound, in series [2], the PI worked out at 0.5 and the ED50 nmol was 145 nmol.

As for `CC1(C)O[C@@H]2[C@@H](CO[C@@]3(COS(N)(=O)=O)OC(C)(C)O[C@@H]23)O1` [Topiramate, reference compound], in series [1], the TD50 nmol result is recorded as “no marked toxicity”. Further, in series [2], the ED50 nmol was greater than 150 nmol.

Turning to `CCCC(CCC)C(=O)O` [Valproic Acid, reference compound], the TD50 in series [1] (setting [4]) is listed as >6000 <12,000. In series [2], the P.I. is 1.1-2.2, the PI was 1.1-2.2, the ED50 nmol was 566 nmol and the ED50 is recorded as 5644 nmols.

Usually IC50 stands for the concentration that gives 50% inhibition. Read a low IC50 as inhibition by little substance. As to (A^7,10)1-12 Con G (peptide), in series [3], the half-maximal inhibitory concentration (IC50) is 300 nM.

Regarding (A^7,10)1-13 Con G (peptide), in series [3], the IC50 was determined as 253 nM.

Take (A^7,10,14)1-14 Con G (peptide): the IC50 in series [3] came to 232 nM.

With (A^7,10,14)1-15 Con G (peptide), the concentration for half-maximal inhibition (IC50) in series [3] came to 34 nM.

On to (A^7,10,14)1-16 Con G (peptide), for which the half-inhibitory concentration (IC50) in series [3] was 37 nM.

Turning to A^3 Con G (peptide), in series [3], the 50% inhibitory concentration (IC50) was 9100 nM.

The compound A^4 Con G (peptide) returned a half-maximal inhibitory concentration (IC50) in series [3] greater than 20000 nM.

The compound A^7,10,14 Con G (peptide) showed an IC50 in series [3] of 88 nM.

In turn, A^7,Y^10 Con G (peptide) yielded an IC50 in series [3] of 79 nM.

In series [3], A^10 Con G (peptide) registered an IC50 of 1100 nM.

As to A^14 Con G (peptide), the half-maximal inhibitory concentration (IC50) in series [3] is 160 nM.

On to E^4 Con G (peptide), for which the half-maximal inhibitory concentration (IC50) in series [3] is greater than 20000 nM.

E^7,10,14 Con G (peptide): in series [3], the IC50 is greater than 20000 nM.

In series [3], S^3 Con G (peptide) came in with a half-maximal inhibitory concentration (IC50) of 3600 nM.

Consider S^4 Con G (peptide), for which, in series [3], the half-inhibitory concentration (IC50) was greater than 20000 nM.

S^7 Con G (peptide): in series [3], the IC50 came out at 250 nM.

Turning to S^10 Con G (peptide), in series [3], the 50% inhibitory concentration (IC50) came out at 1800 nM.

Consider S^14 Con G (peptide), for which the IC50 in series [3] was determined as 160 nM.

Turning to Sp^3 Con G (peptide), in series [3], the IC50 is 900 nM.

In series [3], Sp^4 Con G (peptide) returned an IC50 greater than 20000 nM.

Sp^7 Con G (peptide): the IC50 in series [3] was 1200 nM.

As to Sp^10 Con G (peptide), the IC50 in series [3] came to 560 nM.

Sp^14 Con G (peptide) came in with a half-maximal inhibitory concentration (IC50) in series [3] of 1590 nM.

Compound Y^3 Con G (peptide) yielded an IC50 in series [3] of 960 nM.

In series [3], Y^7 Con G (peptide) had a half-inhibitory concentration (IC50) of 960 nM.
